Data reported in article PMC10812501, “Repurposing Glutathione Transferases: Directed Evolution Combined with Chemical Modification for the Creation of a Semisynthetic Enzyme with High Hydroperoxidase Activity” (Antioxidants, 2023).

Key:
[1] = substrate: CC(C)(OO)c1ccccc1; assay: steady-state kinetics, coupled glutathione reductase/NADPH hydroperoxidase assay; assay type: biochemical, Glycine max; details: GSH 1.0 mM fixed, sodium phosphate 50 mM pH 7.0, 1 mM EDTA
From the text: steady-state kinetics, coupled glutathione reductase/NADPH hydroperoxidase assay on GmGSTU4-4

[2] = substrate: CC(C)(OO)c1ccccc1; assay: as above; assay type: biochemical, Glycine max; details: Sh14 shuffled variant, GSH 1.0 mM fixed, sodium phosphate 50 mM pH 7.0, 1 mM EDTA

B1: GmGSTU4-4 (Glycine max) (protein)
chain: MSDEVVLLDFWPSPFGMRVRIALAEKGIKYEYKEEDLRNKSPLLLQMNPVHKKIPVLIHNGKPICESLIAVQYIEEVWNDRNPLLPSDPYQRAQTRFWADYVDKKIYDLGRKIWTSKGEEKEAAKKEFIEALKLLEEQLGDKTYFGGDNLGFVDIALVPFYTWFKAYETFGTLNIESECPKFIAWAKRCLQKESVAKSLPDQQKVYEFIMDLRKKLGIE
notes: dimer; Sh14 = shuffled variant differing by four point changes (R38Q/Q46K/W114C/I183V)
Km [1]: 454.3 ± 83.6 µM
kcat [1]: 0.178 ± 0.0167 s⁻¹

B2: GmGSTU4-4 (Glycine max; I183V/Q46K/R38Q/W114C) (protein)
chain: MSDEVVLLDFWPSPFGMRVRIALAEKGIKYEYKEEDLQNKSPLLLKMNPVHKKIPVLIHNGKPICESLIAVQYIEEVWNDRNPLLPSDPYQRAQTRFWADYVDKKIYDLGRKICTSKGEEKEAAKKEFIEALKLLEEQLGDKTYFGGDNLGFVDIALVPFYTWFKAYETFGTLNIESECPKFVAWAKRCLQKESVAKSLPDQQKVYEFIMDLRKKLGIE
notes: as for B1
Km [2]: 255.8 ± 46.4 µM
kcat [2]: 0.593 ± 0.0617 s⁻¹
